Measurements as given in patent publication US12258605B2, “Alkane oxidation by modified hydroxylases” (The California Institute of Technology, priority 2005, dated 2025).
Substitutions are numbered along the chain they refer to. Numbers in names are those of the source.

Tests used:
[1] = Kinetic constants for n-alkanes: hexane; type: biochemical; conditions: N.a. = not active
Protocol: Rate measurements. Initial rates of product formation were determined at 25° C. in 100 mM KPi pH 8.0 buffer using purified protein (100 nM) and a substrate concentration of 1.6 mM. In a 5 mL-vial, 20 μL of alkane solution (in ethanol) were dissolved in 400 μL KPi buffer, to which 500 μL enzyme solution at 100-200 nM was added. Reaction was initiated by adding 100 μL of 5 mM NADPH solution, followed by stirring at 300 rpm for 1 minute, and quenched by adding 200 μL chloroform and stirring at 800 rpm for 10 sec. Solutions were transferred to an Eppendorf tube, to which internal standard (10 μL 25 mM 1-bromohexane in ethanol) was added. Tubes were vortexed for 10 sec and centrifuged for 30 sec at 10,000 g. Organic phase was removed and analyzed by GC. For propane, reactions were carried out in a 5 mL-scale using 100-400 nM purified enzyme, propane-saturated buffer (propane concentration≈1.6 mM) and a final NADPH concentration of 500 μM. Reactions were stopped by addition of 200 μL H2SO4 conc. and analyzed by derivatization to alkyl nitrites followed by GC-ECD analysis as described below.
Products from alkane reactions were identified and quantified by gas chromatography using authentic standards and calibration curves with internal standards. For the reactions with alkanes from pentane to decane, GC analyses were carried out using a Shimadzu GC-17A gas chromatograph, Agilent HP5 column (30 m×0.32 mm×0.1 μm film), 1 μL injection, FID detector, and the following separation program: 250° C. inlet, 250° C. detector, 50° C. oven for 3 min, 5° C./min gradient to 100° C., 25° C./min gradient to 230° C., and 230° C. for 3 min. For butane and propane (TTN) reactions, GC analyses were carried out using a Hewlett-Packard 5890 Series II Plus gas chromatograph, Supelco SPB-1 column (60 m×0.52 mm×0.5 μm film), 0.5 μL injection, FID detector, and the following separation program: 250° C. inlet, 275° C. detector, 80° C. oven for 2 min, 10° C./min gradient to 110° C., 25° C./min gradient to 275° C., and 275° C. for 2.5 min. For ethane and propane (rate) reactions, analysis of reaction mixtures was carried out by derivatization to alkyl nitrites followed by GC-ECD analysis. For laurate, reaction product analysis was carried out by derivatization with N-methyl-N-trimethylsilylheptafluorobutyramide followed by extraction with hexane. Organic solutions were analyzed by FID-GC.
To further investigate the evolution of substrate specificity, kinetic constants for the C5 to C8 alkanes were determined from Michaelis-Menten plots (Table 19). The preference of 35E11 and its evolutionary predecessors for medium-chain alkanes is indicated by their high C8/C5 specificities ((kcat/Km)8/(kcat/Km)5˜100), where Km appears to be the major contributing factor. […]

[2] = Methane to methanol conversion (alcohol oxidase/Purpald); type: biochemical; conditions: for Methane TTN: methane to methanol
Protocol: The 35-E11 variant was tested for the ability to convert methane to methanol using the method of Anthon and Barrett (Agric. Food Chem., 52:3749 (2004)). The method was optimized so that it could detect methanol concentrations in water as low as 10 μM.
The mutant BM-3 enzymes described below were purified using published procedures and used as catalysts in small reactions with methane. In glass head space vials containing magnetic stirring bars, BM-3 catalyst was added to 0.1 M potassium phosphate buffer (pH=8) saturated with methane. The vials were then crimped shut and charged to 20 psi with methane. To start the biotransformation, an NADPH regeneration system consisting of NADP+, isocitrate, and isocitric dehydrogenase was added through a syringe. The reaction was allowed to stir 12-15 hours. Methanol production was measured using a coupled enzyme assay. Aliquots of the reaction were transferred to 96-well microtitre plates and reacted with the enzyme alcohol oxidase for 5 minutes at room temperature. Alcohol oxidase converts the methanol produced by the BM-3 variants into formaldehyde which can be detected with the dye Purpald. To detect formaldehyde and quench the alcohol oxidase reaction, a solution of Purpald in 2 M NaOH was added and allowed to react for one hour. The purple color that Purpald forms in the presence of formaldehyde was quantified one hour later by spectrophotometrically reading the well at 550 nm and comparing the absorbance against similarly-treated solutions of BM-3, NADPH regeneration system, and methane-free buffer spiked with known concentrations of methanol. The results of these biotransformations are reported in Table 3 and sample spectra from the colorimetric assay are shown in FIG. 7.
Reactions for enzyme-catalyzed conversion of methane to methanol were carried out in 10 mL glass headspace vials. A 470 μL reaction mixture containing 5 μM purified BM-3 variant in 0.1 M potassium phosphate buffer (pH 8.0) was first added to the vial. The vial was immediately topped with a septum, pressurized with 30 psi of methane and shaken at 4° C. for 1 hour. […] For determination of total turnover, the reaction was allowed to proceed for 20 hours at room temperature.
The amount of methanol product formed during the 20 hr methane reaction was quantified colorimetrically with the use of alcohol oxidase and Purpald. 190 μL of the reaction mixture is transferred onto a single cell of a 96 well plate. 10 μL of 0.05 U/μL solution of alcohol oxidase (from Pichia pastoris, purchased from Sigma-Aldrich) was added to cell and allowed to incubate at room temperature for 5 minutes. During this time, the alcohol oxidase converts the methanol into formaldehyde. Purpald (168 mM in 2 M NAOH) was then added to form a purple product with the formaldehyde in solution. The purple color was read approximately 1 hour later at 550 nm using a Spectramax Plus microtiter plate reader. The concentration of methanol was determined based on the measure absorbance in comparison to a methanol calibration curve. The methanol calibration curve was generated with several standards. Each standard contained 100 μL of a methanol solution (10, 20, 40, 60, 100 μM) and 90 μL of the methane reaction mixture described above, without the methane pressurization.
The relative dimethyl ether (DME) activity was measured, 1 hour after treatment with Purpald, as the average net and absorbance at 550 nm from 8 microtitre plate DME reactions of the mutant compared to 8 equivalent reactions of 35-E11. All values were normalized by measuring the P450 concentration in each well with CO binding. “Asteriks” indicate criteria used to select mutants from libraries for further characterization. The oxidation rate is measured as absorbance change at 340 nm over 1 minute upon the addition of NADPH to 8 microtitre plate wells containing P450-containing cell lysate and compared to 8 equivalent reactions of 35-E11. […]

B1: 35-E11: P450 BM-3 variant, SEQ ID NO:7: 53-5H substitutions plus E464G and I710T (protein)
chain: TIKEMPQPKTFGELKNLPLLNTDKPVQALMKIADELGEIFKFEAPGCVTRYLSSQRLIKEACDESRFDKNLSQALKFFRDFSGDGLFTSWTHEINWKKAHNILLPSFSQQAMKGYHAMMVDIAVQLVQKWERLNADEHIEVSEDMTRLTLDTIGLCGFNYRFNSFYRDQPHPFIISMVRALDEVMNKLQRANPDDPAYDENKRQCQEDIKVMNDLVDKIIADRKARGEQSDDLLTQMLNGKDPETGEPLDDGNISYQIITFLIAGHETTSGLLSFALYFLVKNPHVLQKVVEEAARVLVDPVPSYKQVKQLKYVGMVLNEALRLWPTFPAFSLYAKEDTVLGGEYPLEKGDEVMVLIPQLHRDKTIWGDDVEEFRPERFENPSAIPQHAFKPFGNGQRACIGQQFALHEATLVLGMMLKHFDFEDHTNYELDIKETLTLKPEGFVVKAKSKKIPLGGIPSPSTGQSAKKVRKKAENAHNTPLLVLYGSNMGTAEGTARDLADIAMSKGFAPQVATLDSHAGNLPREGAVLIVTASYNGHPPDNAKQFVDWLDQASADEVKGVRYSVFGCGDKNWATTYQKVPAFIDETLAAKGAENIADRGEADASDDFEGTYEEWREHMWSDVAAYFNLDIENSEDNKSTLSLQFVDSAADMPLAKMHGAFSTNVVASKELQQPGSARSTRHLEIELPKEASYQEGDHLGVIPRNYEGTVNRVTARFGLDASQQIRLEAEEEKLAHLPLAKTVSVEELLQYVELQDPVTRTQLRAMAAKTVCPPHKVELEALLEKQAYKEQVLAKRLTMLELLEKYPACEMKFSEFIALLPSIRPRYYSISSSPRVDEKQASITVSVVSGEAWSGYGEYKGIASNYLAELQEGDTITCFISTPQSEFTLPKDPETPLIMVGPGTGVAPFRGFVQARKQLKEQGQSLGEAHLYFGCRSPHEDYLYQEELENAQSEGIITLHTAFSRMPNQPKTYVQHVMEQDGKKLIELLDQGAHFYICGDGSQMAPAVEATLMKSYADVHQVSEADARLWLQQLEEKGRYAKDVWAG
modifications: mutant P450 35-E11 protein sequence
[1]
  Km: 370 ± 33 µM
  kcat: 11.8 ± 1.15 s⁻¹
[2]; assay detects methanol as low as 10 μM
  methanol production from methane: producing methanol from methane
[2]
  Methane TTN: 8

B2: P450PMO: P450 BM-3 variant, SEQ ID NO:125; 7-7 plus G443A and D698G; propane monooxygenase (protein)
chain: B1 chain with L52I, A74E, S82G, L188P, I366V, G443A, D698G
modifications: Mutant P450PMO protein sequence
notes: 7-7 plus G443A and D698G; propane monooxygenase
[1]
  Km: 430 ± 91 µM
  kcat: 1.42 ± 0.283 s⁻¹

B3: 20-D3: P450 BM-3 variant, SEQ ID NO:11; 35-E11 plus H285R (protein)
chain: B1 chain with H285R
modifications: mutant P450 20-D3 protein sequence
notes: 35-E11 plus H285R
[2]
  Methane TTN: 10
